T1: human EphA3 (Homo sapiens, UniProt P29320)
T1 construct: a protein of the extracellular region of each human Eph receptor fused with the SEAP protein and the His tag; made in house; host or cells: Expi293F cells (culture supernatant)
T1 sequence (P29320 21-541 limits assumed): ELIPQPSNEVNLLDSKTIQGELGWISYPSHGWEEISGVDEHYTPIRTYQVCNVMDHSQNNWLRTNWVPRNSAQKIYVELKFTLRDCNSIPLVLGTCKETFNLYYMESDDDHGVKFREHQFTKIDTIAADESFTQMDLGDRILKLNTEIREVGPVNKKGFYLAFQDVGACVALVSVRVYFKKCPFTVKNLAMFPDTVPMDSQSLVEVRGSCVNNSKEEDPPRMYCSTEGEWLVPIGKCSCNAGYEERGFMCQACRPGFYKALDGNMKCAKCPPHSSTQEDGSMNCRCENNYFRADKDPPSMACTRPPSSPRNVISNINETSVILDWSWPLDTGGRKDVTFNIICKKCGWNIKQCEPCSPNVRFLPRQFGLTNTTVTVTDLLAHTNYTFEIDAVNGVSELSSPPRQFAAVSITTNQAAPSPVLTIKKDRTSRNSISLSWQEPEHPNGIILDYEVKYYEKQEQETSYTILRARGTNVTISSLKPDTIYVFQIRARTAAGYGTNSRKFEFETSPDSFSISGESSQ

T2: human EphB3 (Homo sapiens, UniProt P54753)
T2 construct: a protein of the extracellular region of each human Eph receptor fused with the SEAP protein and the His tag; made in house; host or cells: Expi293F cells
T2 sequence (P54753 34-559 limits assumed): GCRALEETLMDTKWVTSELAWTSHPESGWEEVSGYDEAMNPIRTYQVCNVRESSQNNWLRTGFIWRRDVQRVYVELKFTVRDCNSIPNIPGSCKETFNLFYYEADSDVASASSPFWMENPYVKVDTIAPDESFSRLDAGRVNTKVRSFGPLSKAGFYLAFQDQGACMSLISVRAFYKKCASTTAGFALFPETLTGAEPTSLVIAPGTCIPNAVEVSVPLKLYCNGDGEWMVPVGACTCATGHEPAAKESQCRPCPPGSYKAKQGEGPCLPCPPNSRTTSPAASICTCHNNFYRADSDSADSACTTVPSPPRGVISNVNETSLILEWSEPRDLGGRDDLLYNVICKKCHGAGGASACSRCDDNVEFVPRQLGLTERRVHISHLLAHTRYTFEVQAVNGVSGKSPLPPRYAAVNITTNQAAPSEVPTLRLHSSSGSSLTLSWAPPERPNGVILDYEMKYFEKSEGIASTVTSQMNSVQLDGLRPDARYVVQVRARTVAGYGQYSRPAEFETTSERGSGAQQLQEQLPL

T3: human EphA7 (Homo sapiens, UniProt Q15375)
T3 construct: a protein of the extracellular region of each human Eph receptor fused with the SEAP protein and the His tag; made in house; host or cells: Expi293F cells (culture supernatant)
T3 sequence (Q15375 28-555 limits assumed): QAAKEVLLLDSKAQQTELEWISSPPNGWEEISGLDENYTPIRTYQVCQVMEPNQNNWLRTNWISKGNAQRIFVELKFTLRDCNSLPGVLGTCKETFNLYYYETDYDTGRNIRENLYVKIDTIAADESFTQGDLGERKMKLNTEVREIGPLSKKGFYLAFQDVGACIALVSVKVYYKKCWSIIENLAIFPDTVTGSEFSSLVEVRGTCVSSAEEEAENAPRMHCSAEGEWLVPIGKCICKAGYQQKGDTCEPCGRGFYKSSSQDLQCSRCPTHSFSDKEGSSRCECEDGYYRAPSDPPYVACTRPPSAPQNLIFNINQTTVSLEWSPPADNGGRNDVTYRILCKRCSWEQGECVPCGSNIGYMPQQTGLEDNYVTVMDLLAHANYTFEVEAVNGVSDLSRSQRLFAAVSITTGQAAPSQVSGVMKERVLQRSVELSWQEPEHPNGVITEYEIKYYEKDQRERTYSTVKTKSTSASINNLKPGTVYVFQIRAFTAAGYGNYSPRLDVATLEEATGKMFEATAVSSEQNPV


Key:
Test in all cases: Selectivity ELISA of humanized antibodies for human Eph receptor
Assay type in all cases: binding
Conditions in all cases: coated protein 1 nM
[1] = biological target: T1, human EphA3
In short: (§1)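 Capture ELISA: anti-6-His coat, 1% BlockAce block, Eph ECD-SEAP-His (1 nM final, Expi293F supernatant) 1 h RT, humanized Ab 1 h RT, HRP anti-IgG 1 h RT, TMB, H2SO4 stop, A450.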

[2] = biological target: T2, human EphB3
In short: as §1

[3] = biological target: T3, human EphA7
In short: as §1

[4] = biological target: SEAP-His (Homo sapiens, UniProt P05187)
Sequence of SEAP-His (P05187 23-511 limits assumed): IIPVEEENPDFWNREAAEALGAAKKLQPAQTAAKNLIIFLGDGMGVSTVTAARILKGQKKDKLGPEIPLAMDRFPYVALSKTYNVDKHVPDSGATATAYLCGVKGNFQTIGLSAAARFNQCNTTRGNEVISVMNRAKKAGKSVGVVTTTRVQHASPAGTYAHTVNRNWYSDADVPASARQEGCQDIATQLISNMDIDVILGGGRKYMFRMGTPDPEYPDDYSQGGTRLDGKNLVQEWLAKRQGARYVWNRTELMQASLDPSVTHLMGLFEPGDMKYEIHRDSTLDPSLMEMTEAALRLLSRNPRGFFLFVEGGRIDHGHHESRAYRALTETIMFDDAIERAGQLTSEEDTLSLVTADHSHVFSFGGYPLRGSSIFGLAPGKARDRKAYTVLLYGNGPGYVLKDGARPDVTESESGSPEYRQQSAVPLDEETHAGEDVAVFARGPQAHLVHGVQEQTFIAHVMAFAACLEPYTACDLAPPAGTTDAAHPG
In short: as §1

[5] = biological target: T4, human EphA5 (Homo sapiens, UniProt P54756)
T4 construct: a protein of the extracellular region of each human Eph receptor fused with the SEAP protein and the His tag; made in house; host or cells: Expi293F cells (culture supernatant)
T4 sequence (P54756 25-573 limits assumed): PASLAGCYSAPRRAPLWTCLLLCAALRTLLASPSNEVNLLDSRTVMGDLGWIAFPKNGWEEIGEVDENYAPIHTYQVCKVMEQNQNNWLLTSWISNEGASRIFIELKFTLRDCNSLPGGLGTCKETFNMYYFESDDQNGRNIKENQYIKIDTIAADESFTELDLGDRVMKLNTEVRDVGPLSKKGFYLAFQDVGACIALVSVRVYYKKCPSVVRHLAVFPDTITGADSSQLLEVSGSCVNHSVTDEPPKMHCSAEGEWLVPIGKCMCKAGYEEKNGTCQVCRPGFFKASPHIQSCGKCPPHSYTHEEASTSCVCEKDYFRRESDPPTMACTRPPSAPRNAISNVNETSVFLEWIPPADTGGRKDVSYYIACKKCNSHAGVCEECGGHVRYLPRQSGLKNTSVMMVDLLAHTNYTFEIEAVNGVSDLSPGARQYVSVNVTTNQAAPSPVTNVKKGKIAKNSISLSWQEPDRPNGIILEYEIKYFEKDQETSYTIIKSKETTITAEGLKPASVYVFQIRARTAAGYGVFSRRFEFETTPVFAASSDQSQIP
In short: as §1

hEphA3-SEAP-: absorbance at 450 nm, percentage with respect to hEphA4-SEAP-His as 100% [1] [%] | hEphB3-SEAP-: absorbance at 450 nm, percentage with respect to hEphA4-SEAP-His as 100% [2] [%] | hEphA7-SEAP-: absorbance at 450 nm, percentage with respect to hEphA4-SEAP-His as 100% [3] [%] | SEAP-His: absorbance at 450 nm, percentage with respect to hEphA4-SEAP-His as 100% [4] [%] | hEphA5-SEAP-: absorbance at 450 nm, percentage with respect to hEphA4-SEAP-His as 100% [5] [%] | Molecule
6.2 | 6.2 | 6.3 | 6.3 | 6.3 | 154 (antibody, V domains shown, synthetic humanized antibody heavy chain variable region sequence; synthetic humanized antibody light chain variable region sequence) VH: QVQLVQSGSELKKPGASVKVSCKASGYTFTDYSMHWVRQAPGQGLEWMGWINTETGEPTYADDFKGRFVFSLDTSVSTAYLQISSLKAEDTAVYYCARIPLYYYGSRYWYFDVWGQGTTVTVSS VL: DIQMTQSPSSLSASVGDRVTITCRASENIYRNLAWYQQKPGKAPKLLLYAATNLADGVPSRFSGSGSGTDYTLTISSLQSEDFATYYCQHFWGTPWTFGQGTKVEIK
5.7 | 5.8 | 5.6 | 5.7 | 5.6 | 144 (antibody, V domains shown, synthetic humanized antibody heavy chain variable region sequence; synthetic humanized antibody light chain variable region sequence) VH: QVQLVQSGSELKKPGASVKVSCKASGYTFTDYSMHWVRQAPGQGLEWMGWINTETGEPTYADDFKGRFVFSLDTSVSTAYLQISSLKAEDTAVYYCARIPLYYYGSRYWYFDVWGQGTTVTVSS VL: DIQMTQSPSSLSASVGDRVTITCRASENIYRNLAWYQQKPGKAPQLLLYAATNLADGVPSRFSGSGSGTDYTLTISSLQPEDFATYYCQHFWGTPWTFGQGTKVEIK
6.4 | 6.4 | 6.0 | 6.1 | 6.1 | 157 (antibody, V domains shown, synthetic humanized antibody heavy chain variable region sequence; synthetic humanized antibody light chain variable region sequence) VH: QVQLVQSGSELKKPGASVKVSCKASGYTFTDYSMHWVRQAPGQGLEWMGWINTETGEPTYAQGFTGRFVFSLDTSVSTAYLQISSLKAEDTAVYYCARIPLYYYGSRYWYFDVWGQGTTVTVSS VL: DIQMTQSPSSLSASVGDRVTITCRASENIYRNLAWYQQKPGKAPQLLLYAATNLADGVPSRFSGSGSGTDYTLTISSLQPEDFATYYCQHFWGTPWTFGQGTKVEIK
5.4 | 5.5 | 5.5 | 5.3 | 5.5 | 159 (antibody, V domains shown, synthetic humanized antibody heavy chain variable region sequence; synthetic humanized antibody light chain variable region sequence) VH: QVQLVQSGSELKKPGASVKVSCKASGYTFTDYSMHWVRQAPGQGLKWMGWINTETGEPTYADDFKGRFVFSLDTSVSTAYLQISSLKAEDTAVYYCARIPLYYYGSRYWYFDVWGQGTTVTVSS VL: DIQMTQSPSSLSASVGDRVTITCRASENIYRNLAWYQQKPGKAPQLLLYAATNLADGVPSRFSGSGSGTDYTLTISSLQPEDFATYYCQHFWGTPWTFGQGTKVEIK

More lines, now with the values behind:

Molecule | hEphA3-SEAP-: absorbance at 450 nm, percentage with respect to hEphA4-SEAP-His as 100% [1] [%] | hEphB3-SEAP-: absorbance at 450 nm, percentage with respect to hEphA4-SEAP-His as 100% [2] [%] | hEphA7-SEAP-: absorbance at 450 nm, percentage with respect to hEphA4-SEAP-His as 100% [3] [%] | SEAP-His: absorbance at 450 nm, percentage with respect to hEphA4-SEAP-His as 100% [4] [%] | hEphA5-SEAP-: absorbance at 450 nm, percentage with respect to hEphA4-SEAP-His as 100% [5] [%]
158 (antibody, V domains shown, synthetic humanized antibody heavy chain variable region sequence; synthetic humanized antibody light chain variable region sequence) VH: QVQLVQSGSELKKPGASVKVSCKASGYTFTDYSMHWVRQAPGQGLKWMGWINTETGEPTYAQGFTGRFVFSLDTSVSTAYLQISSLKAEDTAVYYCARIPLYYYGSRYWYFDVWGQGTTVTVSS VL: DIQMTQSPSSLSASVGDRVTITCRASENIYRNLAWYQQKPGKAPQLLLYAATNLADGVPSRFSGSGSGTDYTLTISSLQPEDFATYYCQHFWGTPWTFGQGTKVEIK | 6.5 | 6.5 | 6.3 | 6.3 | 6.7
145 (antibody, V domains shown, synthetic humanized antibody heavy chain variable region sequence; synthetic humanized antibody light chain variable region sequence) VH: QVQLVQSGSELKKPGASVKVSCKASGYTFTDYSMHWVRQAPGQGLKWMGWINTETGEPTYADDFKGRFVFSLDTSVSTAYLQISSLKAEDTAVYYCARIPLYYYGSRYWYFDVWGQGTTVTVSS VL: DIQMTQSPSSLSASVGDRVTITCRASENIYRNLAWYQQKPGKAPKLLLYAATNLADGVPSRFSGSGSGTDYTLTISSLQSEDFATYYCQHFWGTPWTFGQGTKVEIK | 6.6 | 6.7 | 6.3 | 6.4 | 6.6
155 (antibody, V domains shown, synthetic humanized antibody heavy chain variable region sequence; synthetic humanized antibody light chain variable region sequence) VH: QIQLVQSGSELKKPGASVKVSCKASGYTFTDYSMHWVRQAPGQGLKWMGWINTETGEPTYADDFKGRFVFSLDTSVSTAYLQISSLKAEDTAVYYCARIPLYYYGSRYWYFDVWGQGTTVTVSS VL: DIQMTQSPSSLSASVGDRVTITCRASENIYRNLAWYQQKPGKAPKLLLYAATNLADGVPSRFSGSGSGTDYTLTISSLQSEDFATYYCQHFWGTPWTFGQGTKVEIK | 5.6 | 5.5 | 5.6 | 5.8 | 5.6
